Measured values: patent US20020151463A1 (UT BATTELLE, published 2002)

Key:
human MSH receptor = human MSH receptor (human, UniProt Q01726 1-317); assay: cell-based or functional assay
murine MSH receptor [1] = target: T1, murine MSH receptor (mouse, UniProt Q01727 1-315); assay: cell-based or functional assay
murine MSH receptor [2] = target: T1, murine MSH receptor; assay: competition binding against 125I-ACTH1-39 on Cloudman M-3 melanoma cells, single-site model
Method: To investigate this further, the ability of the protein to compete with another melanocortin peptide for binding to the mouse MSH-R was examined. […] Competition binding studies were performed with ¹²⁵I-labelled ACTH₁₋₃₉ and the M-3 subclone of the Cloudman murine melanoma cell line.

T1 sequence (Q01727 whole entry): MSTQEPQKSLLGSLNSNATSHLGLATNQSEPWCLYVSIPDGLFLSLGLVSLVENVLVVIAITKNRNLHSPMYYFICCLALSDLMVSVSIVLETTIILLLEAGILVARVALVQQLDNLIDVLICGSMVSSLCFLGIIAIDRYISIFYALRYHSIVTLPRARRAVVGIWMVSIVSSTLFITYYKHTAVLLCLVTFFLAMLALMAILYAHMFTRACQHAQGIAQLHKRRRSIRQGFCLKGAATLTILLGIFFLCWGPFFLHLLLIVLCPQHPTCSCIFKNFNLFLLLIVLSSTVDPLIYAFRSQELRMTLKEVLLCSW
Sequence of human MSH receptor (Q01726 whole entry): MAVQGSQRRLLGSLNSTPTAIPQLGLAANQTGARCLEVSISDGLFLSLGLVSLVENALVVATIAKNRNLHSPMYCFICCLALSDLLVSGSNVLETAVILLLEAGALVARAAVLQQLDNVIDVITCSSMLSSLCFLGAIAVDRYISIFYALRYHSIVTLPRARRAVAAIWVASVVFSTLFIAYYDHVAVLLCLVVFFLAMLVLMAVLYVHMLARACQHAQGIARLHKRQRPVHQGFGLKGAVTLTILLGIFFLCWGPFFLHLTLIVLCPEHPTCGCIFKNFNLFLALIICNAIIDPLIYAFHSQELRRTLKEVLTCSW

B1: recombinant human agouti protein (ligand)
chain: HLPPEEKLRDDRSLRSNSSVNLLDVPSVSIVALNKKSKQIGRKAAEKKRSSKKEASMKKVVRPRTPLSAPCVATRNSCKPPAPACCDPCASCQCRFFRSACSCRVLSLNC
Human MSH receptor
  EC50 of the [Ca^2+]i dose response in the HEK-293 MC1R line: ~18 nM

B2: recombinant murine agouti protein (ligand)
chain: HLALEETLGDDRSLRSNSSMNSLDFSSVSIVALNKKSKKISRKEAEKRKRSSKKKASMKKVARPPPPSPCVATRDSCKPPAPACCDPCASCQCRFFGSACTCRVLNPNC
notes: Full-length mouse agouti cDNA expressed by baculovirus in T. ni cells; also called mouse agouti; agouti polypeptide
Murine MSH receptor [1]
  apparent Ki (antagonism of α-MSH-stimulated adenylyl cyclase, four independent studies): 0.32 nM
Murine MSH receptor [2]
  IC50: 1.2 ng/mL
  Ki: 0.66 nM
